Measurements published in the RNAGym collection of RNA variant scans (doi:10.1021/acssynbio.7b00057).

B1: Pistol ribozyme (parent)
chain: GGGUCGUUGUUCCAUAAUCGCGUGGAUAUGGCACGCAAGUUUCUACCGGGCACCGUAAAUGUCCGACUGGAGCCGUUCGGGCGGCUAUAAACAGACCUCAGGCCCGAAGCGUGGCGGCACCUGCCGCCGGUGGUAAAAAAGAUCGGAAGAGCACACGUCU

Variants of: B1
Experiment: aptazyme ON/OFF ratio, guanine; higher = stronger switching; co-transcriptional cleavage with and without guanine

Variant	aptazyme ON/OFF ratio
U7C U8A G9A U10A U11G	1.31
U7C U8A G9A U11C C12U	1.13
U7C U8A G9A U11C C12A	1.23
U7C U8A G9A U11C C12G	1.16
U7C U8A G9C U10A C12U C13G	1.11
U7C U8A G9C U10A C12U C13U	1.06
U7C U8A G9C U10A C12U C13A	1.09
U7C U8A G9A U10A U11C C12U C13A	1.09
U7C U8A G9A U10A U11C C12U C13G	1.06
U7C U8A G9A U10A U11C C12U C13U	1.1
U7C U8A G9A U10C	3.41
U7C U8A G9A U10G	1.38
U7C U8A G9C U10A U11G C12G	1.31
U7C U8A G9C U10A U11G C12A	1.06
U7C U8A G9C U10A U11G C12U	1.21
U7C U8A G9C U10C U11A C12G	1.03
U7C U8A G9C U10C U11A C12A	1.03
U7C U8A G9C U10C U11A C12U	1.06
U7C U8A G9C U10A U11A C12U C13U	1.11
U7C U8A G9C U10A U11A C12U C13A	1.05
U7C U8A G9C U10A U11A C12U C13G	1.1

Variant	aptazyme ON/OFF ratio
U7C U8A G9A U10C U11A C13U	1.16
U7C U8A G9A U10C U11A C13G	1.08
U7C U8A G9A U10C U11A C13A	1.2
U7C U8A G9C U10A C12G C13G	1.21
U7C U8A G9C U10A C12G C13A	1.11
U7C U8A G9C U10A C12G C13U	1.26
U7C U8A G9C U10A U11C C12G C13U	1.36
U7C U8A G9C U10A U11C C12G C13G	1.29
U7C U8A G9C U10A U11C C12G C13A	1.29
U7C U8A G9A U10C U11C C12A C13G	1.05
U7C U8A G9A U10C U11C C12A C13A	1.03
U7C U8A G9A U10C U11C C12A C13U	1.09
U7C U8A G9A U10G U11G C12G C13A	1.21
U7C U8A G9A U10G U11G C12G C13G	1.23
U7C U8A G9A U10G U11G C12G C13U	1.2
U7C U8A G9C U10C C12U C13A	1.06
U7C U8A G9C U10C C12U C13U	1.05
U7C U8A G9C U10C C12U C13G	1.06
U7C U8A G9A U11C C12A C13A	1.15
U7C U8A G9A U11C C12A C13G	1.15
U7C U8A G9A U11C C12A C13U	1.28

Variant	aptazyme ON/OFF ratio
U7C U8A G9A U10G C12U C13A	1.26
U7C U8A G9A U10G C12U C13G	1.14
U7C U8A G9A U10G C12U C13U	0.977
U7C U8A G9A U10G U11C C12G	1.21
U7C U8A G9A U10G U11C C12A	1.2
U7C U8A G9A U10G U11C C12U	1.07
U7C U8A G9A U10A U11G C12A C13U	1.18
U7C U8A G9A U10A U11G C12A C13A	1.11
U7C U8A G9A U10A U11G C12A C13G	1.09
U7C U8A G9A U10G C12G C13G	1.04
U7C U8A G9A U10G C12G C13A	1.1
U7C U8A G9A U10G C12G C13U	1.27
U7C U8A G9A U10C U11G C12A C13G	1.16
U7C U8A G9A U10C U11G C12A C13A	1.2
U7C U8A G9A U10C U11G C12A C13U	1.14
U7C U8A G9A U11G C12U C13A	1.16
U7C U8A G9A U11G C12U C13U	1.18
U7C U8A G9A U11G C12U C13G	1.14
U7C U8A G9A U10C U11G C12A	1.05
U7C U8A G9A U10C U11G C12G	1.31
U7C U8A G9A U10C U11G C12U	1.22

Variant	aptazyme ON/OFF ratio
U7C U8A G9C U10A U11C	1.05
U7C U8A G9C U10A U11G	1.29
U7C U8A G9C U10A U11A	1.27
U7C U8A G9C U10C C12G C13A	1.06
U7C U8A G9C U10C C12G C13G	1.07
U7C U8A G9C U10C C12G C13U	1.07
U7C U8A G9C U10C U11C C13G	1
U7C U8A G9C U10C U11C C13U	1.03
U7C U8A G9C U10C U11C C13A	1.01
U7C U8A G9A U11C C12G C13U	1.18
U7C U8A G9A U11C C12G C13A	1.16
U7C U8A G9A U11C C12G C13G	1.12
U7C U8A G9C U10A U11G C12G C13U	1.1
U7C U8A G9C U10A U11G C12G C13A	1.1
U7C U8A G9C U10A U11G C12G C13G	1.15
U7C U8A G9A U11C C13U	1.05
U7C U8A G9A U11C C13A	1.04
U7C U8A G9A U11C C13G	1.02
U7C U8A G9C C12U C13G	1.07
U7C U8A G9C C12U C13A	1.12
